Protein stability index data for 73 sequences are collected here from the supplement of paper PMC10567573.

This data set can be described thus: protein stability index of a GFP-peptide fusion (GPS, HEK-293T) (PSI 1-6); higher = more stable. The note with it: c terminus: a fixed tail appended.

± gives the standard deviation.
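Further: 24-mer peptide tiles fused after GFP, lentivirally expressed, FACS-sorted into six equal bins by GFP/DsRed ratio, decoded by Illumina sequencing, PSI is the read-weighted mean bin number.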

Consider ESGPSAEKYSVATQLFIGGVTGWC [FUNDC2], for which the protein stability index runs as follows: (treatment: DMSO) 2.14 ± 0.29; (treatment: MLN4924 1 uM, 8 h) 1.97 ± 0.38.
For ESITSAGRDDLESFQLEISGFLKE [FAM98B] the same measures were 3.9 ± 0.26 and 4.1 ± 0.28.
For ESKDQGKTLALARTMDIPRSVQNF [ALDH8A1] the same measures were 4.01 ± 0.15 and 4.18 ± 0.23.
In the same order, the values of ESRRQQILREFEELHRRLDEEQQV [TRIM39] are 4.87 ± 0.23 and 4.8 ± 0.097.
For the sequence ESRYTSDYFISYGIEHAQCVPPSE [ETS1], the protein stability index worked out at 3.22 ± 0.29 (treatment: DMSO) and 3.5 ± 0.53 (treatment: MLN4924 1 uM, 8 h).
For ETGEAARDPSLRPARTVLVGSLSW the same measures were 3.06 ± 0.32 and 2.88 ± 0.27.
For ETGKLLWKVRYDTFIVSCKFSPDG [WDR88] the same measures were 2.55 ± 0.37 and 2.04 ± 0.26.
In the same order, the values of ETNEEDKTLQEIYRKYRKLIESEL [FBXO39] are 3.02 ± 0.44 and 3.4 ± 0.34.
Consider EVEGVKNIMTQNVERILARGENLE [VAMP8], for which the protein stability index is 4.68 ± 0.15 (treatment: DMSO) and 4.46 ± 0.16 (treatment: MLN4924 1 uM, 8 h).
For EVIEKPENDPEWWKCKNARGQVGL [NCK2] the same measures were 4.28 ± 0.31 and 4.368 ± 0.038.
With EVIPYTPAMQRYVKRLHEVGRTEP [HMOX1], the protein stability index was 3.18 ± 0.21 (treatment: DMSO) and 3.41 ± 0.25 (treatment: MLN4924 1 uM, 8 h).
In the same order, the values of EVNSAEELEGLIADPDEMRMQALL [FEM1C] are 4.89 ± 0.16 and 5 ± 0.3.
In the same order, the values of EVPQLPPRASISHVTCVDQSEHTM [C2CD2L] are 4.66 ± 0.15 and 4.7 ± 0.25.
For the sequence EYLSFFDFSGLTLDGALRTFLKAF [PSD2], the protein stability index came to 2.44 ± 0.31 (treatment: DMSO) and 2.01 ± 0.34 (treatment: MLN4924 1 uM, 8 h).
In the same order, the values of FAKLEKLTILAKRKSLFDDKAVEI [STX5] are 2.47 ± 0.23 and 2.48 ± 0.53.
Consider FDVKNDRYIVNGSHEANKLQDMLD [EIF5], for which the protein stability index amounted to 3.97 ± 0.11 (treatment: DMSO) and 3.81 ± 0.25 (treatment: MLN4924 1 uM, 8 h).
For FEEVLSSTAHASAQSLAGGSRRTK [TPD52L1] the same measures were 5.16 ± 0.16 and 5.11 ± 0.24.
For FEQILSLPELKANPFKERICRVFS [CIB1] the same measures were 2.25 ± 0.2 and 2.38 ± 0.16.
On to FFFDRNPGAFGTILTFLRAGKLRL [KCNG1], for which the protein stability index by setting is: (treatment: DMSO) 2.48 ± 1.3; (treatment: MLN4924 1 uM, 8 h) 2.07 ± 0.11.
Consider FGERRIPRGRRISVICRSLPEGMG [ALKBH7], for which the protein stability index is 2.82 ± 0.29 (treatment: DMSO) and 2.87 ± 0.26 (treatment: MLN4924 1 uM, 8 h).
On to FGRKDHLTRHTKKTHSQELMKESL [PLAGL1], for which the protein stability index (treatment: DMSO) is 3.53 ± 0.2 and the protein stability index (treatment: MLN4924 1 uM, 8 h) amounted to 3.77 ± 0.26.
Turning to FIYSLKQMLLNVEANSAKVQEDLE [FSD1], the protein stability index was determined as 2.55 ± 0.16 (treatment: DMSO) and 2.38 ± 0.28 (treatment: MLN4924 1 uM, 8 h).
In the same order, the values of FKDEWTQLDMFYRNWALKESFIKA [AASDHPPT] are 2.02 ± 0.16 and 2.22 ± 0.14.
In the same order, the values of FKPVVAAQKISKGADPKSVVCAFF [ZC3H15] are 2.32 ± 1 and 2.81 ± 1.5.
Turning to FLDLMETIDKQREEMAKSSRASAA [LRRC45], the protein stability index (treatment: DMSO) is 3.71 ± 0.11 and the protein stability index (treatment: MLN4924 1 uM, 8 h) amounted to 4.08 ± 0.3.
In the same order, the values of FLKEYFPIEVVTEGLLNTYQELLG [NLN] are 2.44 ± 0.51 and 2.52 ± 0.55.
For FLSGLAFRVFHCTQYVRHSSDPFY [TPH1] the same measures were 2.67 ± 0.27 and 2.99 ± 0.4.
For FLVMKGQEGAASKVLGRLRALSDT [SLC2A12] the same measures were 2.27 ± 0.45 and 2.44 ± 0.39.
As for FLWGPRALVETSYVKVLHHMVKIS [MAGEA3], the protein stability index by setting is: (treatment: DMSO) 2.01 ± 0.35; (treatment: MLN4924 1 uM, 8 h) 2.64 ± 0.71.
In the same order, the values of FMAYEQIKRLVGSDQETLRIHERL [SLC25A25] are 3.08 ± 0.26 and 2.97 ± 0.42.
For FNEMSAQGLRPRTVSSPIPYTPSP [CCDC6] the same measures were 4.02 ± 0.3 and 4.12 ± 0.23.
For FPVAEQDKLLKHMIIEHKIVIADV [ZNF277] the same measures were 2.25 ± 0.18 and 2.4 ± 0.34.
Take FQEWEAHRNLSQLPNFAFSVPLAY [TCF25]: the protein stability index by setting is: (treatment: DMSO) 2.73 ± 0.58; (treatment: MLN4924 1 uM, 8 h) 2.4 ± 0.25.
In the same order, the values of FSPIAIDGMSGLAGVGLSGGAAGA [ELAVL3] are 3.04 ± 0.26 and 3.2 ± 0.26.
Regarding FSTCGSHLTVVAIFYGSGIFNYMR [OR3A1], the protein stability index is, setting by setting: (treatment: DMSO) 2.89 ± 0.56; (treatment: MLN4924 1 uM, 8 h) 2.94 ± 0.49.
In the same order, the values of FTTFRGTELSFLVTTHQPTNLVLP [EDNRA] are 2.84 ± 0.74 and 2.29 ± 0.37.
In the same order, the values of FTVGSVLGQILVSVAGWSLFSLNV [SLC19A2] are 3.28 ± 0.33 and 3.1 ± 0.63.
For FVYENAKEGARNIRTSERVTLIVD [BTBD10] the same measures were 2.55 ± 0.6 and 3.06 ± 0.5.
With FYRLYQDLETHRLPCTSRCPRPCR [SCNN1D], the protein stability index by setting is: (treatment: DMSO) 2.8 ± 0.26; (treatment: MLN4924 1 uM, 8 h) 2.99 ± 0.35.
In the same order, the values of GAAQEALSIQLQPKETQPFPKSEQ [ZNF232] are 5.17 ± 0.25 and 5.22 ± 0.23.
As for GAFQAQEKELVFDIDMTDYDDVRR [PRIM1], the protein stability index worked out at 4.72 ± 0.4 (treatment: DMSO) and 4.71 ± 0.14 (treatment: MLN4924 1 uM, 8 h).
As for GAKDSELASQNKPLWQCYLGRFND [PDS5B], the protein stability index is, setting by setting: (treatment: DMSO) 2.51 ± 0.37; (treatment: MLN4924 1 uM, 8 h) 3.25 ± 0.3.
For the sequence GAPLIRVHSSPVSSPSVSGPRRLV [SPACA3], the protein stability index stood at 3.24 ± 0.31 (treatment: DMSO) and 3.6 ± 0.19 (treatment: MLN4924 1 uM, 8 h).
In the same order, the values of GARPVSSAASVYAGAGGSGSRISV [KRT18] are 3.66 ± 0.34 and 3.75 ± 0.19.
For GDGKSKKKQAGRPKGSKGKEKDSP [RBBP5] the same measures were 5.39 ± 0.29 and 5.34 ± 0.11.
For GDLGDPFHLGLEDILMEEEEGVVG [TFE3] the same measures were 5.33 ± 0.34 and 5.3 ± 0.2.
GDWAPPPEGGMEQALAGASSGREL [ZNF263] gave a protein stability index (treatment: DMSO) of 5.35 ± 0.36 and a protein stability index (treatment: MLN4924 1 uM, 8 h) of 5.37 ± 0.16.
For GEKPYLSPDILEEKHCEFKQLALD [ATL3] the same measures were 4.42 ± 0.25 and 4.92 ± 0.12.
For GESYESCCPTSREAAVEALELLGA [FEM1A] the same measures were 4.58 ± 0.12 and 4.66 ± 0.2.
As to GGSTSAHYAVNSQFTMGGPAISMA [CARM1], the protein stability index was 2.94 ± 0.55 (treatment: DMSO) and 2.94 ± 0.25 (treatment: MLN4924 1 uM, 8 h).
In the same order, the values of GHLCAAEVVKIRDSFSNQNTETKD [DLC1] are 4.18 ± 0.063 and 4.14 ± 0.22.
In turn, GIKGLVRDSHGKGIPNAIISVEGI [CPXM2] showed a protein stability index (treatment: DMSO) of 2.8 ± 0.067.
The same measure, in the same setting: with GIRKEDLDIVCERFTTSKLQSFED [MLH1] the figure was 3.6 ± 0.22.
Sequence GIVVESNHDSHMAKERAHSTASHS [PDZK1] registered a protein stability index (treatment: MLN4924 1 uM, 8 h) of 4.44 ± 0.21.
As for GKKDKHSQSPRAAGPREGHSHSHH [PBXIP1], the protein stability index is, setting by setting: (treatment: DMSO) 5.32 ± 0.31; (treatment: MLN4924 1 uM, 8 h) 5.26 ± 0.1.
For GLEGLEDAPPVELQLLHECSPSQM [FANCE] the same measures were 4.77 ± 0.19 and 4.66 ± 0.12.
In the same order, the values of GLGGGSSRTSCRLSGGLGAGSCRL [KRT17] are 2.41 ± 0.13 and 2.35 ± 0.41.
In the same order, the values of GLGYFSCHSHTVVQDYSYFFFLRM [CCDC3] are 2.66 ± 0.71 and 2.3 ± 0.55.
As for GLQAQIASSGLTVEVDAPKSQDLA [KRT18], the protein stability index came to 4.77 ± 0.35 (treatment: DMSO) and 4.94 ± 0.47 (treatment: MLN4924 1 uM, 8 h).
GLQSPGTLQPPEFLYSHGVPRTLS [TBX5]: the protein stability index reads like this: (treatment: DMSO) 3.32 ± 0.27; (treatment: MLN4924 1 uM, 8 h) 3.49 ± 0.36.
In the same order, the values of GLSPRVIRVWFQNKRCKDKKKSIL [ISL2] are 2.13 ± 0.45 and 2.36 ± 0.085.
For GLVYRIHSVLQGFIPLFQKFRLTG [TMEM40] the same measures were 3.03 ± 0.56 and 2.73 ± 0.37.
In the same order, the values of GMLDVADESLTDLEAQPYEAVFLR [P3H4] are 4.02 ± 0.47 and 4.19 ± 0.21.
Take GNAKGKILVLKTDSQDLVASFRVT [RBBP5]: the protein stability index was 2.17 ± 0.19 (treatment: DMSO) and 2.11 ± 0.28 (treatment: MLN4924 1 uM, 8 h).
In the same order, the values of GNKQWWFGGGCDLTPTYLNQEDAI [CPOX] are 3.12 ± 0.19 and 3.33 ± 0.23.
Consider GNRILDEKEQEKMRQDLEEERVAL [PKD2L1], for which the protein stability index reads like this: (treatment: DMSO) 5.24 ± 0.74; (treatment: MLN4924 1 uM, 8 h) 5.57 ± 0.27.
For GNTAVSVLMLLVALLFTGIAVLGI [SCAMP3] the same measures were 1.99 ± 0.37 and 1.96 ± 0.34.
In the same order, the values of GPAASEGAEQPPDLHCVLVTNPHS [GADD45A] are 4.97 ± 0.14 and 4.95 ± 0.1.
In the same order, the values of GPCEGPSKEDKDLDSSEGSSQEDE [SPANXN3] are 5.68 ± 0.14 and 5.68 ± 0.14.
For GQENDATSPHFSTRHEGSFQVPVL [CD69], the protein stability index was determined as 3.68 ± 0.35 (treatment: DMSO) and 3.69 ± 0.14 (treatment: MLN4924 1 uM, 8 h).
GQGAMFRLPTDSHFPYDLHLRSQS [NEUROD6]: the protein stability index (treatment: DMSO) came to 3.02 ± 0.3 and the protein stability index (treatment: MLN4924 1 uM, 8 h) stood at 3.11 ± 0.22.
In the same order, the values of GRCLEVEMSKDANFGLRLVVQRCS [GALNT9] are 2.27 ± 0.15 and 2 ± 0.41.
For GRECQPRWETSSWSECSRTCGEGY [ADAMTSL2] the same measures were 3.78 ± 0.15 and 3.49 ± 0.092.
